Laboratory results published in article doi:10.1101/2022.02.14.480375.

Target: S1PR1-SmBiT (S1P receptor-1 fused to the small fragment of split luciferase) (UniProt P21453)
Assay: split reporter

Sequence of UniProt P21453 (P21453 whole entry, the tested form may be a part): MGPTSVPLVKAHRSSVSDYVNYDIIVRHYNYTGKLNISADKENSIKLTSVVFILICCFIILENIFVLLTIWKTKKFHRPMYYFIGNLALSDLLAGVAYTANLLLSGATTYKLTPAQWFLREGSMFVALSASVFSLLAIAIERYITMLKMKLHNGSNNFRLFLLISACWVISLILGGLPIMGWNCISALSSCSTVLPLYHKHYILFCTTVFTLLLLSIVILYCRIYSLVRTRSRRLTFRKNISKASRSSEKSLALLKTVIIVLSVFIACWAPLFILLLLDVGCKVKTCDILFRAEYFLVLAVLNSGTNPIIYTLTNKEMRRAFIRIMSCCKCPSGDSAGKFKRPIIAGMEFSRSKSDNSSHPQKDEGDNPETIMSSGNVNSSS

“LgBiT-beta-arrestin fusion protein (from UniProt P49407 1-418) (natural protein)” gave a T1/2 of β-arrestin activation with albumin-bound S1P (1 μM S1P) of 16 min.
